T1: human IL-1α (human, UniProt P01583 113-271)
T1 construct: also called IL-1alpha; hIL-1α
T1 sequence (looked up): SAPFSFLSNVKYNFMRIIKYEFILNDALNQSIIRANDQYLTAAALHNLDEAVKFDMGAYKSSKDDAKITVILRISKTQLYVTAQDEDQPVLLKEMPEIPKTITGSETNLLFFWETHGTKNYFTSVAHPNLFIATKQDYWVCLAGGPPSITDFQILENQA


Tests used:
[1] = molecular target: T1, human IL-1α; assay: Table 62 IC50; RBA presumed
[2] = molecular target: T1, human IL-1α; assay: cell-based or functional assay

IC50 [1] | ND50 [2] | Binder
200 nM | 500 nM | ABT1-6-15 (other, VH dAb) VH: EVQLLESGGGLVQPGGSLRLSCAASGFTFVRYDMAWVRQAPGKGLEWVSSINKSGALTSYADSVKGRFTISRDNSKNTLYLQMNSLRAEDTAVYYCAKGWASFDYWGQGTLVTVSS
3000 nM | 3000 nM | ABT1-6 (other, VH dAb) VH: EVQLLESGGGLVQPGGSLRLSCAASGFTFGAYDMQWVRQAPGKGLEWVSSINKSGALTSYADSVKGRFTISRDNSKNTLYLQMNSLRAEDTAVYYCAKGWASFDYWGQGTLVTVSS
80 nM | 60 nM | ABT1-6-3 (other, VH dAb) VH: EVQLLESGGGLVQPGGSLRLSCAASGFTFGAYDMQWVRQAPGKGLEWVSSIYKSGALTSYADSVKGRFTISRDNSKNTLYLQMNSLRAEDTAVYYCAKGWASFDYWGQGTLVTVSS
0.5 nM | 1 nM | ABT1-95-33 (other, VK dAb) VL: DIQMTQSPSSLSASVGDRVTITCRASQPIVRNLRWYQQKPGKAPKLLIYSSSYLEPGVPSRFSGSGSGTDFTLTISSLQPEDFATYYCRQGYRWPVTFGQGTKVEIKR
0.2 nM | 0.064 nM | ABT1-95-149 (other, VK dAb) VL: DIQMTQSPSSLSASVGDRVTITCRASQAIVRNLRWYQQKPGKAPKLLIYSSSYLEPGVPSRFSGSGSGTDFTLTISSLQPEDFATYHCQQGYRWPVTFGQGTKVEIKR
0.1 nM | 0.139 nM | ABT1-95-47 (other, VK dAb) VL: DIQMTQSPSSLSASVGDRVTITCRASMPIVRNLRWYQQKPGKAPKLLIYSSSYLEPGVPSRFSGSGSGTDFTLTISSLQPEDFATYHCQQGYRWPVTFGQGTKVEIKR
0.2 nM | 0.713 nM | ABT1-95-85 (other, VK dAb) VL: DIQMTQSPSSLSASVGDRVTITCRAGQPIVRNLRWYQQKPGKAPKLLIYSGSYLEPGVPSRFSGSGSGTDFTLTISSLQPEDFATYHCLQGYRWPVTFGQGTKVEIKR
0.1 nM | 0.184 nM | ABT1-95-102 (other, VK dAb) VL: DIQMTQSPSSLSASVGDRVTITCRASQPIVRNLRWYQQKPGKAPKLLIYSSSYLQPGVPSRFSGSGSGTDFTLTISSLQPEDFATYHCQQGYRWPVTFGQGTKVEIKR
0.3 nM | 0.008 nM | ABT1-95-80 (other, VK dAb) VL: DIQMTQSPSSLSASVGDRVTITCRASQPIVRNLRWYQQKPGKAPKLLIYSVSYLEPGVPSRFSGSGSGTDFTLTISSLQPEDFATYHCQQGYRWPVTFGQGTKVEIKR
0.1 nM | 0.5 nM | ABT1-95-161 (other, VK dAb) VL: DIQMTQSPSSLSASVGDRVTITCRASQPIVRNLRWYQQKPGKAPKLLIYSSSYLEPGVPSRFSGSGSGTDFTLTISSLQPEDFATYHCQQGYRWPPTFGQGTKVEIKR
0.1 nM | 0.085 nM | ABT1-95-131 (other, VK dAb) VL: DIQMTQSPSSLSASVGDRVTITCRASQPTVRNLRWYQQKPGKAPKLLIYSSSYLEPGVPSRFSGSGSGTDFTLTISSLQPEDFATYHCQQGYRWPVTFGQGTKVEIKR
0.2 nM | 0.168 nM | ABT1-95-116 (other, VK dAb) VL: DIQMTQSPSSLSASVGDRVTITCRASQPIVRNLRWYQQKPGKAPKLLIYSSSYLEPGVPSRFSGSGSGTDFTLTISSLQPEDFATYHCVQGYRWPVTFGQGTKVEIKR
0.2 nM | 0.19 nM | ABT1-95-148 (other, VK dAb) VL: DIQMTQSPSSLSASVGDRVTITCRASQTIVRNLRWYQQKPGKAPKLLIYSSSYLEPGVPSRFSGSGSGTDFTLTISSLQPEDFATYHCQQGYRWPVTFGQGTKVEIKR
0.2 nM | 0.122 nM | ABT1-95-118 (other, VK dAb) VL: DIQMTQSPSSLSASVGDRVTITCRASQPIVRNLRWYQQKPGKAPKLLIYSSSYLEPGVPSRFSGSGSGTDFTLTISSLQPEDFATYHCSQGYRWPVTFGQGTKVEIKR
0.1 nM | 1 nM | ABT1-95-34 (other, VK dAb) VL: DIQMTQSPSSLSASVGDRVTITCRASAPIVRNLRWYQQKPGKAPKLLIYSSSYLEPGVPSRFSGSGSGTDFTLTISSLQPEDFATYHCQQGYRWPVTFGQGTKVEIKR
< 0.1 nM | 0.15 nM | ABT1-95-44 (other, VK dAb) VL: DIQMTQSPSSLSASVGDRVTITCRASSPIVRNLRWYQQKPGKAPKLLIYSSSYLEPGVPSRFSGSGSGTDFTLTISSLQPEDFATYHCQQGYRWPVTFGQGTKVEIKR

IC50 [1] | ND50 [2] | Binder
< 0.1 nM | 0.5 nM | ABT1-95-92 (other, VK dAb) VL: DIQMTQSPSSLSASVGDRVTITCRASQPIVRNLRWYQQKPGKAPKLLIYSSSTLEPGVPSRFSGSGSGTDFTLTISSLQPEDFATYHCQQGYRWPVTFGQGTKVEIKR
0.1 nM | 0.238 nM | ABT1-95-160 (other, VK dAb) VL: DIQMTQSPSSLSASVGDRVTITCRASQPIVRNLRWYQQKPGKAPKLLIYSSSYLEPGVPSRFSGSGSGTDFTLTISSLQPEDFATYHCQQGYVWPVTFGQGTKVEIKR
0.2 nM | 0.1 nM | ABT1-95-139 (other, VK dAb) VL: DIQMTQSPSSLSASVGDRVTITCRASQQIVRNLRWYQQKPGKAPKLLIYSSSYLEPGVPSRFSGSGSGTDFTLTISSLQPEDFATYHCQQGYRWPVTFGQGTKVEIKR
0.1 nM | 0.044 nM | ABT1-95-67 (other, VK dAb) VL: DIQMTQSPSSLSASVGDRVTITCRASQPIVRNLRWYQQKPGKAPKLLIYASSYLEPGVPSRFSGSGSGTDFTLTISSLQPEDFATYHCQQGYRWPVTFGQGTKVEIKR
0.2 nM | 0.1 nM | ABT1-95-117 (other, VK dAb) VL: DIQMTQSPSSLSASVGDRVTITCRASQPIVRNLRWYQQKPGKAPKLLIYSSSYLEPGVPSRFSGSGSGTDFTLTISSLQPEDFAMYHCVQGYRWPVTFGQGTKVEIKR
0.1 nM | 0.5 nM | ABT1-95-107 (other, VK dAb) VL: DIQMTQSPSSLSASVGDRVTITCRASQPIVRNLRWYQQKPGKAPKLLIYSSSYLEHGVPSRFSGSGSGTDFTLTISSLQPEDFATYHCQQGYRWPVTFGQGTKVEIKR
> 1000 nM | 14 nM | ABT1-164 (other, VK dAb) VL: DIQMTQSPSSLSASVGDRVTITCRASRPIAGNLRWYQQKPGKAPKLLIWGASSLQSGVPSRFSGSGSGTDFTLTISSLQPEDFATYYCVQGWQWPITFGQGTKVEIKR
0.2 nM | 0.23 nM | ABT1-95-115 (other, VK dAb) VL: DIQMTQSPSSLSASVGDRVTITCRASQPIVRNLRWYQQKPGKAPKLLIYSSSYLEPGVPSRFSGSGSGTDFTLTISSLQPEDFATYHCLQGYRWPVTFGQGTKVEIKR
3 nM | 0.438 nM | ABT1-95-64 (other, VK dAb) VL: DIQMTQSPSSLSASVGDRVTITCRASQPIVRNLRWYQQKPGKAPKLLVHSSSYLEPGVPSRFSGSGSGTDFTLTISSLQPEDFATYHCQQGYRWPVTFGQGTKVEVKR
1000 nM | 105 nM | ABT1-163 (other, VK dAb) VL: DIQMTQSPSSLSASVGDRVTITCRASGNIVHNLRWYQQKPGKAPKLLIYAASRLQSGVPSRFSGSGSGTDFTLTISSLQPEDFATYYCAQGYEWPLTFGQGTKVEIKQ
0.2 nM | 0.1 nM | ABT1-95-121 (other, VK dAb) VL: DIQMTQSPSSLSASVGDRVTITCRASQPIVRNLRWYQQKPGKAPKLLIYSSSYLEPGVPSRFSGSGSGTDFTLTISSLQPEDFATYHCQQGYEWPVTFGQGTKVEIKR
0.1 nM | 2 nM | ABT1-95-132 (other, VK dAb) VL: DIQMTQSPSSLSASVGDRVTITCRASQPIVRNLRWYQQKPGIAPKLLIYSSSYLEPGVPSRFSGSGSGTDFTLTISSPQPEDFATYHCQQGYRWPVTFGQGTKVEIKR
< 0.1 nM | 0.15 nM | ABT1-95-41 (other, VK dAb) VL: DIQMTQSPSSLSASVGDRVTITCRASYPIVRNLRWYQQKPGKAPKLLIYSSSYLEPGVPSRFSGSGSGTDFTLTISSLQPEDFATYHCQQGYRWPVTFGQGTKVEIKR
0.1 nM | 0.116 nM | ABT1-95-122 (other, VK dAb) VL: DIQMTQSPSSLSASVGDRVTITCRASQPIVRNLRWYQQKPGKAPKLLIYSSSYLEPGVPSRFSGSGSGTDFILTISSLQPEDFATYHCQQGYRWPVTFGQGTKVEIKR
> 10000 nM | 5000 nM | ABT1-93 (other, VH dAb) VH: EVQLLESGGGLVQPGGSLRLSCAASGFTFNEYNMVWVRQAPGKGLEWVSSISGGGGFTYYADSVKGRFTISRDNSKNTLYLQMNSLRAEDTAVYYCAKPLRGFVCSQHCSFDYWGQGTLVTVSS
> 10000 nM | > 10000 nM | ABT1-92 (other, VH dAb) VH: EVQLLESGGGLVQPGGSLRLSCAASGFTFSTYTMTWVRQAPGKGLEWVSTIFPGGSTTYYADSVKGRFTISRDNSKNTLYLQMNSLRAEDTAVYYCAKYVDFVKLSFDYWGQRTLVTVSS

— patent US20090291081A1 (AbbVie / Abbott, published 2009)
